Data taken from patent US8658382B2, “Proteins with pteridine glycosyltransferase activity and analysis method using the same” (Inje University Industry-Academic Cooperation Foundation, priority 2008, dated 2014).
Entries after “also recorded” stand apart in the source; their conditions may differ.

Experiments:
BGluT = experiment: Pteridines as substrate or competitive inhibitor of the BGluT reaction; assay type: biochemical, Synechococcus sp. PCC 7942; conditions: for glucosylated product formed from the pteridine as substrate of BGluT: pteridine concentration increased to 5 μM, data not shown
Procedure: Unless otherwise specified, the following standard reaction conditions were used for the determination of tetrahydrobiopterin and its oxidized forms. Reactions were carried out in a final volume of 100 μl, which consisted of 50 mM Tris-HCl (pH 7.5), 10 mM MgCl2, 0.05% ascorbic acid, 500 μM UDP-glucose, 1 μg of BGluT, and an aliquot of pteridines or tissue extracts. The reaction mixture was incubated for 20 minutes at 37° C. and then mixed with 30 μl of acidic iodine solution (2% KIM % I2 in 1 N HCl). After 1 hour in the dark at room temperature, the oxidized mixture was centrifuged. The supernatant was mixed with 10 μl of 5% ascorbic acid and then neutralized with 30 μl of 1 N NaOH for injection to HPLC.
(§1) The HPLC system consisted of Gilson 321 pump, Gilson 234 autoinjector, a fluorescence detector (Schimadzu RF-10AXL), and a system software (Gilson Unipoint version 5.11). Chromatography was performed on a guard column (10 μm, 4.3 mm×1 cm) and an Inertsil ODS-3 (5 μm, 150×2.3 mm, GL Science, Japan) equilibrated with 10 mM potassium phosphate buffer (pH 6.0) at room temperature. Pteridines were eluted isocratically at a flow rate of 1.2 ml/min and monitored at 350/450 nm (excitation/emission). Pteridine peaks were identified and quantified using authentic pteridines, which were purchased from Dr. B. Schirck's Lab (Jona, Switzerland). Biopterin-glucoside was isolated from Synechococcus sp. PCC 7942 (Y. K. Choi, Y. K. Hwang, Y. H. Kang, Y. S. Park, Chemical structure of 1-O-(L-erythro-biopterin-2′-yl)-alpha-glucose isolated from a cyanobacterium Synechococcus sp. PCC 7942, Pteridines, 12 (2001) 121-125).
To determine whether the presence of dihydrobiopterin, structurally similar to tetrahydrobiopterin, interferes with glucosylation of tetrahydrobiopterin, 1 μM of dihydrobiopterin was added to the same mixture for enzyme reaction as in FIG. 1B, which was then oxidized under acidic condition.
Biological samples contain tetrahydrobiopterin as well as its oxidized forms (dihydrobiopterin and bipterin). In order to quantitatively analyze only tetrahydrobiopterin selectively using BGluT, the BGluT reaction should be specific to tetrahydrobiopterin, without being interfered by its oxidized forms. Using various pteridines (dihydrobiopterin, biopterin, neopterin, tetrahydroneopterin, and isomers thereof) as a substrate, potential inhibitory effect was evaluated. […] It therefore was suspected that dihydrobiopterin might function as a competitive inhibitor in glucosylation of tetrahydrobiopterin by BGluT.
However, when the concentration of dihydrobiopterin is higher than tetrahydrobiopterin, dihydrobiopterin could show inhibitory effects. In order to examine whether dihydrobiopterin interferes with the BGluT reaction, dihydrobiopterin was coincubated under the standard reaction condition with a fixed amount (0.25 μM) of tetrahydrobiopterin, along with increasing concentrations of dihydrobiopterin up to 4-fold (0.05˜1 μM) (see FIG. 4). In FIG. 4, the X-axis represents concentrations of dihydrobiopterin added to the reaction solution and the Y-axis represents peak areas of the glucosylated product produced from tetrahydrobiopterin. The results thereof show means±standard deviations of the peak areas of biopterin-glucoside, which were obtained from triplicate assays. […] In general, the concentrations of the oxidized forms of tetrahydrobiopterin in a biological sample are not higher than that of tetrahydrobiopterin.
In order to examine whether the added dihydrobiopterin has been glucosylated even in small amount, the peak areas of biopterin originated from the dihydrobiopterin (X-axis) were compared with those determined from the same concentration of dihydrobiopterin without enzyme reaction (Y-axis) (FIG. 4 (insert)). The slope obtained from regression line was almost 1.

[1] = Pteridine glycosyltransferase activity with human urine; assay type: biochemical; conditions: 1 μg protein, 10 μl human urine in 100 μl, FIG. 12
Procedure: Also, 1 μg of each protein was added to 100 μl of reaction solution containing 10 μl of human urine instead of tetrahydrobiopterin. The reaction mixture was incubated at for 20 minutes. For CY-49, 500 μM UDP-xylose was added as a substrate; and for other enzymes, UDP-glucose was added. Other reaction conditions were the same as in the above.

[2] = Analysis of protein activity of the recombinant proteins with UDP-glycosides; assay type: biochemical; conditions: for pteridine glycosyltransferase activity (sugar bound to tetrahydrobiopterin): 1 μM tetrahydrobiopterin, 500 μM UDP-glycoside, HPLC, FIG. 10
Procedure: The protein activity was assayed in 100 μl of reaction mixture having the following composition: 50 mM Tris-HCl (pH 7.5), 10 mM MgCl2, 0.2% ascorbic acid, 1 μM tetrahydrobiopterin, 500 μM UDP-glycoside (one of UDP-glucose, UDP-galactose, UDP-xylose, UDP-glucuronic acid, UDP-galacturonic acid, UDP-N-acetylglucosamine, and UDP-N-acetylgalactosamine) and an appropriate amount of the purified recombinant protein. The reaction was performed at 37 for 10-60 minutes depending on an amount of protein. 30 μl of acidic iodine solution (2%/1% KI/I2 in 1 M HCl) was added to the reaction mixture and allowed in darkness for 1 hour for oxidation thereof. The mixture was centrifuged to recover the supernatant, which was then mixed with 10 μl of 5% ascorbic acid. 30 μl of 1N NaOH was added to the resulting mixture for neutralization and then HPLC analysis was carried out.
as §1, with “HPLC” for “The HPLC”, “quantified by” for “quantified”

[3] = Characterization of enzyme activity by amount of protein, compared with BGluT; assay type: biochemical; conditions: production of tetrahydrobiopterin-glycoside by amount of protein (0.05-1.0 μg), FIG. 11
Procedure: The enzymatic activities for the isolated proteins were compared with that of BGluT. First, production profiles of tetrahydrobiopterin(BH4)-glucoside produced according to amounts of the proteins was compared with that of BGluT. The enzyme activities were represented as a percentage to all converted amounts. The reaction condition was as follows. That is, reactions were performed in a final volume of 100 μl, which consisted of 50 mM Tris-HCl (pH 7.5), 10 mM MgCl2, 0.05% ascorbic acid, 1 μM tetrahydrobiopterin, 500 μM UDP-glucose or UDP-xylose, and a protein (0.05-1.0 μg). The reaction mixture was incubated at 37 for 20 minutes. 30 μl of acidic iodine solution (2%/1% KI/I2 in 1 M HCl) was added thereto in darkness for 1 hour at room temperature, so as to oxidize the reaction mixture. After centrifugation, the resulting supernatant was mixed with 10 μl of 5% ascorbic acid and neutralized with 30 μl of 1N NaOH for injection to HPLC.

With `C[C@H](O)[C@H](O)C1=Nc2c(nc(N)[nH]c2=O)NC1` [dihydrobiopterin] the “slope of regression line, biopterin-glucoside peak area against dihydrobiopterin concentration” value (BGluT; 0.25 μM tetrahydrobiopterin, 0.05~1 μM dihydrobiopterin, standard reaction condition, FIG. 4) was “zero”, the “effect of added dihydrobiopterin on glucosylation of tetrahydrobiopterin” value (BGluT; 1 μM dihydrobiopterin added, FIG. 1C) was “no significant difference in the amounts of glucosylated products of tetrahydrobiopterin” and the “slope of regression line, biopterin from dihydrobiopterin with BGluT against without enzyme reaction” value (BGluT; FIG. 4 (insert)) was about 1. For the same molecule, the “glucosylated product formed from the pteridine as substrate of BGluT” value (from here on “glucosylated product formed”) (BGluT) was “a small amount of glucosylated product”.

In the case of `Nc1nc2c(c(=O)[nH]1)NC(C(O)C(O)CO)CN2` (stereo not drawn) [tetrahydroneopterin], the “glucosylated product formed” value (BGluT) is reported as “only dihydrobiopterin among the pteridines showed”.

In the case of biopterin, the “glucosylated product formed” value (BGluT) is reported as “only dihydrobiopterin among the pteridines showed”.

With `Nc1nc2ncc([C@H](O)[C@H](O)CO)nc2c(=O)[nH]1` [neopterin] the “glucosylated product formed” value (BGluT) was “only dihydrobiopterin among the pteridines showed”.

B1: CY-7: recombinant pteridine glycosyltransferase from Spirulina platensis CY-7, amino acid SEQ ID NO 2 (protein)
chain: MTPTSWKLLFISTPVGPLGSGLGGGVELTLLNMAKALKSRGHDITVVAPSGSVLESLSIIEIPGELQPIAQNQDRDSLITIPENSVLGNMWEYGRQVQTNYHAIVNFAFDWLPFYLTPFFDTPIAHCVSMASLISALDQIVGQVMKQFPGTVGFHSHTQAATFGSDLDYACLGSGLEMERYQFCEQPHQQLAWMGRISPEKGLEDAIAAADKTGIPLEIFGKIQDDQYWQNILNTYPNAPLNYRGFLNTDELQQGLRQCRGLLMTHRWVEAFGNVAIEALACGVPVISYRRGGPAEIVRDGETGWLVEPDSVTGLVDAIAKFEQIDRRQCRAVAEKEYSLAALGDRLEKWLSDVTRLKN
modifications: Spirulina platensis CY-7
For B1, the “HPLC chromatogram of the reaction mixture with human urine” value (“HPLC chromatogram” below) [1] was “very similar to that of BGluT”, the Substrate for glucosylation [2] was “Glucose” and the “pteridine glycosyltransferase activity (sugar bound to tetrahydrobiopterin)” value [2] was “an activity for binding glucose to tetrahydrobiopterin”. The “activity compared with BGluT” value [3] was “higher activities than BGluT; also recorded: more excellent activity than BGluT”.

B2: UICB: recombinant pteridine glycosyltransferase from unidentified wild cyanobacteria B, amino acid SEQ ID NO 5 (protein)
chain: LSRKLLFLSTPVGFLGSGDGGGVELTIYNLARTLNKQGYAVRVAAPEASQLQDIPLITMAGNAQISAQSQGREAPILMPENAVLANMWHYAQQVQKQYDLIVNFAYDWLPFYLTPFFATPVAHLVSMASVSLAMDHINEKTYSNFPHLLAFHTLAQAETFSLSPPYRCLANGLDVSLYQFRDDPSPCLAWVGRIAPEKALEDAIAACQQLGVPLRVFGHISDPLYWQNSQDTYSFDLVDYRGFLPTGSLQKELGDCFGLLMTPRWVEAFGNVAIEALACGVPVVAYRRGGPVEIIEEGKTGFLVEPDSIEGLVTGIKNLDRIDRYSCRAVVEQKYSLEASANRAINWFEEIFARKK
modifications: Unidentified cyanobacteria sp.
For B2, the “HPLC chromatogram” value [1] was “very similar to that of BGluT”, the Substrate for glucosylation [2] was “Glucose” and the “pteridine glycosyltransferase activity (sugar bound to tetrahydrobiopterin)” value [2] was “an activity for binding glucose to tetrahydrobiopterin”.

B3: UICA: recombinant pteridine glycosyltransferase from unidentified wild cyanobacteria A, amino acid SEQ ID NO 4 (protein)
chain: LSRKLLFLSTPVGFLGSGGGGGVELTIYNLARTLNKQGYAVRVVAPEASQLQDIPLITIAGNAQISAQSQDREAPILIPENAVLANMWHYAQQVQNEYDLIVNFAYDWLPFYLTPFFATPVAHLVSMASVSLAMDNIIQKTYRSFPHSLAFHTVTQAETFSLSPPYRRLANGLDVSLYQFRADPSPCLAWVGRIAPEKALEGAIAACQQLGVPLRVFGHISNPLYWQNLQDTYSFDLVDYRGFLPTGSLQKELGDCFGLLMTPGWVEAFGNVAIEALACGVPVVAYRRGGPVEIIEEGKTGFLVEPDSIEGLVTGIKNLDRIDRYSCRAVVEQKYSLEALANRAINWFDEIFARKK
modifications: Unidentified cyanobacteria sp.
In the case of B3, the “HPLC chromatogram” value [1] is reported as “very similar to that of BGluT”, the Substrate for glucosylation [2] is reported as “Glucose” and the “pteridine glycosyltransferase activity (sugar bound to tetrahydrobiopterin)” value [2] is reported as “an activity for binding glucose to tetrahydrobiopterin”.

B4: CY-49: recombinant pteridine glycosyltransferase from Spirulina maxima CY-49, amino acid SEQ ID NO 3, transfers xylose (protein)
chain: MPQKSWKLLFISTPVGPLGSGLGGGVELTLLNMAKALHSRGHDITVVAPSGSVLESLSVIEISGKLQPIAQNQDRDSLITIPENSVLGNMWEYGRQVQTNYHAIVNFAFDWLPFYLTPFFPTPIAHWVSMGSLISALDQIVVEVMKQFPGTVGFYSHTQAATFGSDLGYACLGSGLEMDRYQFCDQPHQQLAWMGRISPEKGLEDAIAAADKTGIPLAIFGKIQDEQYWQNILNTYPNAPLNYRGFLNTDELQQGLRECRGLLMTHRWVEAFGNVAIEALACGVPVISYRRGGPAEIVRDGETGWLVEPDSVTGLVDAIAKLEQIDRRQCRALAEKEYSLVALGDRLETWLSDVIALKN
modifications: Spirulina maxima CY-49
For B4, the “HPLC chromatogram” value [1] was “showed the peak of biopterin-xylose, instead of biopterin-glucose”, the Substrate for glucosylation [2] was “Xylose” and the “pteridine glycosyltransferase activity (sugar bound to tetrahydrobiopterin)” value [2] was “an activity for binding xylose to tetrahydrobiopterin”. The “activity compared with BGluT” value [3] was “higher activities than BGluT”.
